Article PMC10301331, “Molecular Engineering of E. coli Bacterioferritin: A Versatile Nanodimensional Protein Cage” (Molecules, 2023)

Target: the molecule itself
Experiment: SEC + other: dynamic light scattering; His-tag Bfr (alone or in ratios with WT Bfr) declustered at pH 2.0, incubated with Pro-Q Sapphire 365 NTA dye and Ni2+, reclustered by dialysis to pH 7.0 (methods: pH 8.0), then size exclusion

B1: His-tagged Escherichia coli bacterioferritin (C-terminal His-tag) (natural protein)
chain: not shown
notes: Escherichia coli bacterioferritin (Bfr) subunit; the gene coding for E. coli Bfr was cloned; also called His-tag Bfr; His-tagged Bfr; source: details in Supplementary Materials; not shown: His6 (after a two amino acid linker Leu-Glu), C-terminal, kept; copies: 24
  stoichiometry N: 24
